# In paper PMC6355003 (2019):
# B1: Drp1 (dynamin-related protein Drp1), wild type [not stated] / GST-MiD51^133-463, wild type [human] (parent complex)
# chain 1: MEALIPVINKLQDVFNTVGADIIQLPQIVVVGTQSSGKSSVLESLVGRDLLPRGTGIVTRRPLILQLVHVSQEDKRKTTGEENGVEAEEWGKFLHTKNKLYTDFDEIRQEIENETERISGNNKGVSPEPIHLKIFSPNVVNLTLVDLPGMTKVPVGDQPKDIELQIRELILRFISNPNSIILAVTAANTDMATSEALKISREVDPDGRRTLAVITKLDLMDAGTDAMDVLMGRVIPVKLGIIGVVNRSQLDINNKKSVTDSIRDEYAFLQKKYPSLANRNGTKYLARTLNRLLMHHIRDCLPELKTRINVLAAQYQSLLNSYGEPVDDKSATLLQLITKFATEYCNTIEGTAKYIETSELCGGARICYIFHETFGRTLESVDPLGGLNTIDILTAIRNATGPRPALFVPEVSFELLVKRQIKRLEEPSLRCVELVHEEMQRIIQHCSNYSTQELLRFPKLHDAIVEVVTCLLRKRLPVTNEMVHNLVAIELAYINTKHPDFADACGLMNNNIEEQRRNRLARELPSAVSRDKVASGGGGVGDGVQEPTTGNWRGMLKTSKAEELLAEEKSKPIPIMPASPQKGHAVNLLDVPVPVARKLSAREQRDCEVIERLIKSYFLIVRKNIQDSVPKAVMHFLVNHVKDTLQSELVGQLYKSSLLDDLLTESEDMAQRRKEAADMLKALQGASQIIAEIRETHLW
# chain 2: MSLQEKLLTYYRNRAAIPAGEQARAKQAAVDICAELRSFLRAKLPDMPLRDMYLSGSLYDDLQVVTADHIQLIVPLVLEQNLWSCIPGEDTIMNVPGFFLVRRENPEYFPRGSSYWDRCVVGGYLSPKTVADTFEKVVAGSINWPAIGSLLDYVIRPAPPPEALTLEVQYERDKHLFIDFLPSVTLGDTVLVAKPHRLAQYDNLWRLSLRPAETARLRALDQADSGCRSLCLKILKAICKSTPALGHLTASQLTNVILHLAQEEADWSPDMLADRFLQALRGLISYLEAGVLPSALNPKVNLFAELTPEEIDELGYTLYCSLSEPEVLLQT
# Variants of: B1
# Experiment: GST pull-down, SDS-PAGE band quantification; parent: 0.15; read off a plot
row,response [molar ratio],Variant
1,~0.16,chain 1 S600D
2,~0.017,"chain 1 G350D, chain 1 G401A, chain 1 P402A, chain 1 R403A, chain 1 P404A"
3,~0.064,"chain 1 G401A, chain 1 P402A, chain 1 R403A, chain 1 P404A"
4,~0.19,chain 1 S579D
5,~0.012,"chain 1 A395D, chain 1 G401A, chain 1 P402A, chain 1 R403A, chain 1 P404A"
6,~0.084,chain 1 A395D
7,~0.089,chain 1 G350D
8,~0.01,"chain 1 G350D, chain 1 A395D"

# Variants of: B1
# Experiment: GST pull-down, SDS-PAGE band quantification; parent: 0.3; read off a plot
row,response [molar ratio],Variant
1,~0.33,chain 2 S285Q
2,~0.082,chain 2 R102E
3,~0.058,chain 2 Y108A
4,~0.055,chain 2 F109A
5,~0.42,chain 2 E107R
6,~0.082,chain 2 R111E
